Data from patent publication US20240343811A1 (SHANDONG SIMCERE BIOPHARMACUTICAL, published 2024).
Like-named read-outs stand apart in the source and are kept apart here.

Tests used:
[1] = target: T1, human CD16b (NA2), full length, on FlpinCHO cells (human, UniProt O75015 17-200); assay: FACS on FlpinCHO cells
T1 construct: also called FlpinCHO-human CD16b (NA2)
T1 chain: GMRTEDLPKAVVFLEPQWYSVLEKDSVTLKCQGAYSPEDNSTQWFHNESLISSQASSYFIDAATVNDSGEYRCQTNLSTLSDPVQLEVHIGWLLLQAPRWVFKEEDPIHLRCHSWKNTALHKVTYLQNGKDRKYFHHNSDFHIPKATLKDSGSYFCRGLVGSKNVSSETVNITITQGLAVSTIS
Summary of the method: (§1)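 Trypsin-detached FlpinCHO cells expressing full-length CD16b were blocked in PBS+2% BSA and incubated on ice for 1 hour with antibody at varying concentrations. Binding read by flow cytometry as MFI; EC50 from curve fitting.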

[2] = target: T2, human CD16b (NA1), full length, on FlpinCHO cells (human, UniProt O75015 17-200); assay: FACS on FlpinCHO cells
T2 construct: also called FlpinCHO-human CD16b (NA1)
T2 chain: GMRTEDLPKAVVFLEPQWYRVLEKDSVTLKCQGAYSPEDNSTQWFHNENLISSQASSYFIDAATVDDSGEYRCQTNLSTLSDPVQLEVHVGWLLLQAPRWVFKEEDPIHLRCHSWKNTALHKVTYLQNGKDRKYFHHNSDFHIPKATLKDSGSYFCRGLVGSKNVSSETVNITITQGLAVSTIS
Summary of the method: as §1

[3] = target: T3, human CD16a (158V), full length, on cells (human, UniProt P08637 17-254); assay: cell-based or functional assay
Human CD16a (158F)-his = target: T4, Human CD16a (158F)-his (human); assay: SPR (Biacore), antibody captured on Protein A
T4 construct: entry holds ECD, AVI tag, linker and His tag
Summary of the method: (§2)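 Protein A–captured antibody was probed with CD16-his ECD in HBS-EP+ at 25 °C: five 2-fold dilutions from 200 nM, 240 s at 30 μL/min, dissociation up to 600 s. Glycine pH 1.5 regenerated the chip. Apparent KD came from a double-referenced 1:1 Langmuir fit.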

Human CD16a (158V)-his = target: T5, Human CD16a (158V)-his (human); assay: SPR (Biacore), antibody captured on Protein A
T5 construct: entry holds ECD, AVI tag, linker and His tag
Summary of the method: as §2

[4] = target: T6, cynomolgus monkey CD16, full length, on FlpinCHO cells (cynomolgus monkey, UniProt Q8SPW2 17-254); assay: FACS on FlpinCHO cells
T6 construct: also called FlpinCHO-cyno CD16; Flipin CHO-cyno CD16
T6 sequence (Q8SPW2 other isoform, or with tags, fused parts or gaps limits assumed): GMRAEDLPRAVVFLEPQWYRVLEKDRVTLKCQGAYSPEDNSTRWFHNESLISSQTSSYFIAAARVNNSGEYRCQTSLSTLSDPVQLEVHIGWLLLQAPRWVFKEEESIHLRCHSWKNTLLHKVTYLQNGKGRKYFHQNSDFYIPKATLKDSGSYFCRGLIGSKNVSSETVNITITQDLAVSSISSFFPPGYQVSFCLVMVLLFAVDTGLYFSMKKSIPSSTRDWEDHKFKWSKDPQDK
Method: (§3) The required cells were scale-up cultured in a T-75 cell culture flask to the logarithmic growth phase. The medium was aspirated, and the cells were washed twice with a PBS buffer and then digested with trypsin. After the digestion was terminated, the cells were washed twice with the PBS buffer. The cells were counted, and then the cell pellet was resuspended with a [PBS+2% (w/w) BSA] blocking solution to 2×10⁶ cells/ml, and added to a 96-well FACS reaction plate at 50 μl/well. […] 50 μl/well of the antibody to be detected was added at different concentrations, and incubated on ice for 1 hour. […] The mixture was centrifuged and washed 5 times with PBS, and FACS (FACS Canto II, purchased from BD Company) was used for detection and result analysis. Data analysis was performed by software (CellQuest) to obtain the mean fluorescence intensity (MFI) of the cells. Then, software (GraphPad Prism8) was used for analysis, data fitting and EC50 value calculation.
(§4) Flipin CHO-cyno CD16 cells were subjected to FACS detection and data analysis according to the method of Example 3.1.

[5] = target: T3, human CD16a (158V), full length, on …; assay: FACS, biotinylated antibody
[6] = target: T7, human CD16a (158F), full length, on FlpinCHO cells (human, UniProt P08637 17-254); assay: FACS, biotinylated antibody
[7] = target: T3, human CD16a (158V), full length, on …; assay: FACS on FlpinCHO cells
Summary of the method: (§5)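 Trypsinised cells in PBS + 2% BSA were incubated on ice for 1 hour with antibody at a range of concentrations. After washes, mean fluorescence intensity was read by flow cytometry. EC50 values were derived by curve fitting of MFI.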

[8] = target: T7, human CD16a (158F), full length, on …; assay: FACS on FlpinCHO cells
Summary of the method: as §5

[9] = target: T3, human CD16a (158V), full length, on …; assay: FACS, biotinylated antibody, +10 mg/mL human immunoglobulin
[10] = target: T7, human CD16a (158F), full length, on …; assay: as above
[11] = target: T3, human CD16a (158V), full length, on …; assay: cell-based or functional assay; remark: listed apart in the source
[12] = target: T6, cynomolgus monkey CD16, full length, on …; assay: FACS on FlpinCHO cells; remark: listed apart in the source
Method: as §3, §4

[13] = target: T3, human CD16a (158V), full length, on …; assay: FACS on FlpinCHO cells; remark: listed apart in the source
Method: as §3
(§6) The binding of a humanized antibody to FlpinCHO-human CD16a cells was detected according to the method of Example 3.1.

[14] = target: T7, human CD16a (158F), full length, on …; assay: FACS on FlpinCHO cells; remark: listed apart in the source
Method: as §3, §6

[15] = target: T1, human CD16b (NA2), full length, on …; assay: FACS on FlpinCHO cells
Method: as §3
(§7) The binding of an antibody to be detected to FlpinCHO-human CD16b cells was detected according to the method of Example 3.1.

[16] = target: T2, human CD16b (NA1), full length, on …; assay: FACS on FlpinCHO cells
Method: as §3, §7

B1: VHH02 VHH-Fc antibody (Fc fusion)
chain: EVQLVESGGGLVQAGGSLRLSCATSGITFSSYAMGWYRQAPGKQRELVAGINRFGLTNYADSVKGRFTISRDNAKNTVYLQMTSLKSEDTAVYYCNTGGVYSHPNYYTGIYWGQGTQVTVSSEPKSSDKTHTCPPCPAPEFEGGPSVFLFPPKPKDTLMISRTPEVTCVVVAVSHEDPEVKFNWYVDGVEVHNAKTKPREEQYNSTYRVVSVLTVLHQDWLNGKEYKCKVSNKALPAPIEKTISKAKGQPREPQVYTLPPSREEMTKNQVSLTCLVKGFYPSDIAVEWESNGQPENNYKTTPPVLDSDGSFFLYSKLTVDKSRWQQGNVFSCSVMHEALHNHYTQKSLSLSPGK
- EC50 [1]: 5.45 nM
- Maximum mean fluorescence intensity [1]: 52400
- EC50 [2]: 4.27 nM
- Maximum mean fluorescence intensity [2]: 31900
- EC50, activation activity for Jurkat cell [3]: 0.3 nM
- Maximum fluorescence value [3]: 178000
- Kd (Human CD16a (158F)-his): 132 nM
- koff (Human CD16a (158F)-his): 0.027 s⁻¹
- kon (Human CD16a (158F)-his): 205000 M⁻¹ s⁻¹
- Kd (Human CD16a (158V)-his): 96.5 nM
- koff (Human CD16a (158V)-his): 0.0179 s⁻¹
- kon (Human CD16a (158V)-his): 186000 M⁻¹ s⁻¹
- EC50 [4]: 0.88 nM
- Maximum mean fluorescence intensity [4]: 17100
- EC50 [5]: 0.33 nM
- Maximum mean fluorescence intensity [5]: 7300
- EC50 [6]: 0.33 nM
- Maximum mean fluorescence intensity [6]: 6310
- EC50 [7]: 0.3 nM
- Maximum mean fluorescence intensity [7]: 6000
- EC50 [8]: 1.17 nM
- Maximum mean fluorescence intensity [8]: 5210
- EC50 [9]: 1.18 nM
- Maximum mean fluorescence intensity [9]: 7660
- EC50 [10]: 1.21 nM
- Maximum mean fluorescence intensity [10]: 6020

B2: VHH12-08 humanized VHH-Fc antibody (Fc fusion)
chain: EVQLVESGGGLVQPGGSLRLSCAASGITFSSYAMGWYRQAPGKQRELVAAINRFGLTNYADFVKGRFTISRVNAKNSLYLQMNSLRAEDTAVYYCNTGGVYSHPDYYTGTYWGQGTMVTVSSEPKSSDKTHTCPPCPAPEEFGGPSVFLFPPKPKDTLMISRTPEVTCVVVAVSHEDPEVKFNWYVDGVEVHNAKTKPREEQYNSTYRVVSVLTVLHQDWLNGKEYKCKVSNKALPAPIEKTISKAKGQPREPQVYTLPPSREEMTKNQVSLTCLVKGFYPSDIAVEWESNGQPENNYKTTPPVLDSDGSFFLYSKLTVDKSRWQQGNVFSCSVMHEALHNHYTQKSLSLSPGK
- EC50, activation activity for Jurkat cell [11]: 0.01 nM
- Maximum fluorescence value [11]: 142000
- EC50 [12]: 0.44 nM
- Maximum mean fluorescence intensity [12]: 18300
- EC50 [13]: 0.32 nM
- Maximum mean fluorescence intensity [13]: 7920
- EC50 [14]: 0.31 nM
- Maximum mean fluorescence intensity [14]: 9010
- Kd (Human CD16a (158F)-his): 48.6 nM
- koff (Human CD16a (158F)-his): 0.0294 s⁻¹
- kon (Human CD16a (158F)-his): 605000 M⁻¹ s⁻¹
- Maximum mean fluorescence intensity [15]: 77300
- EC50 [16]: 0.98 nM
- Maximum mean fluorescence intensity [16]: 52100

B3: VHH12-03 humanized VHH-Fc antibody (Fc fusion)
chain: EVQLVESGGGLVQPGGSLRLSCAASGITFSSYAMGWYRQAPGKQRELVAAINRFGLTNYVDSVKGRFTISRDNAKNSLYLQMNSLRAEDTAVYYCNTGGVYSHPDYYTGTYWGQGTMVTVSSEPKSSDKTHTCPPCPAPEEFGGPSVFLFPPKPKDTLMISRTPEVTCVVVAVSHEDPEVKFNWYVDGVEVHNAKTKPREEQYNSTYRVVSVLTVLHQDWLNGKEYKCKVSNKALPAPIEKTISKAKGQPREPQVYTLPPSREEMTKNQVSLTCLVKGFYPSDIAVEWESNGQPENNYKTTPPVLDSDGSFFLYSKLTVDKSRWQQGNVFSCSVMHEALHNHYTQKSLSLSPGK
- EC50, activation activity for Jurkat cell [11]: 0.02 nM
- Maximum fluorescence value [11]: 155000
- EC50 [12]: 0.8 nM
- Maximum mean fluorescence intensity [12]: 18000
- EC50 [13]: 0.48 nM
- Maximum mean fluorescence intensity [13]: 7750
- EC50 [14]: 0.48 nM
- Maximum mean fluorescence intensity [14]: 8810
- Kd (Human CD16a (158F)-his): 55.7 nM
- koff (Human CD16a (158F)-his): 0.0244 s⁻¹
- kon (Human CD16a (158F)-his): 438000 M⁻¹ s⁻¹
- Maximum mean fluorescence intensity [15]: 72700
- EC50 [16]: 1.37 nM
- Maximum mean fluorescence intensity [16]: 47300

B4: VHH12-02 humanized VHH-Fc antibody (Fc fusion)
chain: EVQLVESGGGLVQPGGSLRLSCAASGITFSSYAMGWYRQAPGKQRELVAAINRFGLTYYVDSVKGRFTISRDNAKNSLYLQMNSLRAEDTAVYYCNTGGVYSHPDYYTGTYWGQGTMVTVSSEPKSSDKTHTCPPCPAPEEFGGPSVFLFPPKPKDTLMISRTPEVTCVVVAVSHEDPEVKFNWYVDGVEVHNAKTKPREEQYNSTYRVVSVLTVLHQDWLNGKEYKCKVSNKALPAPIEKTISKAKGQPREPQVYTLPPSREEMTKNQVSLTCLVKGFYPSDIAVEWESNGQPENNYKTTPPVLDSDGSFFLYSKLTVDKSRWQQGNVFSCSVMHEALHNHYTQKSLSLSPGK
- EC50, activation activity for Jurkat cell [11]: 0.01 nM
- Maximum fluorescence value [11]: 148000
- EC50 [12]: 0.74 nM
- Maximum mean fluorescence intensity [12]: 16900
- EC50 [13]: 0.45 nM
- Maximum mean fluorescence intensity [13]: 6600
- EC50 [14]: 0.46 nM
- Maximum mean fluorescence intensity [14]: 7440
- Kd (Human CD16a (158F)-his): 75.1 nM
- koff (Human CD16a (158F)-his): 0.0237 s⁻¹
- kon (Human CD16a (158F)-his): 316000 M⁻¹ s⁻¹
- Maximum mean fluorescence intensity [15]: 73300
- EC50 [16]: 0.94 nM
- Maximum mean fluorescence intensity [16]: 39700
